Test results taken from paper PMC11417369, “DNA sequence and chromatin differentiate sequence-specific transcription factor binding in the human malaria parasite Plasmodium falciparum”.

T1: HDP1 homeodomain-like (Plasmodium falciparum, UniProt Q8IKH4 2990-3078)
T1 sequence: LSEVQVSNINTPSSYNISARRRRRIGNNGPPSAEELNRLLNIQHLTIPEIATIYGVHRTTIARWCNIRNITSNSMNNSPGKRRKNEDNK


Target: T1, HDP1 homeodomain-like
Experiment: gcPBM; about 25 ug protein; PBS, 1% milk, 0.2 mg/ml BSA, salmon testes DNA, 0.03% Triton X-100
Conditions: tags: N-terminal GST (pGEX-4T-1), kept; chain copies: 2; label: surface-attached array probe

Binder	binding signal
GTGCAC_site10340 (dsDNA) DNA 1: ATTATTATTAATCTTGTGCACATATATTTTAATTAG DNA 2: CTAATTAAAATATATGTGCACAAGATTAATAATAAT	11.6 ln median PBM intensity, better of two orientations
GTGCAC_site9742 (dsDNA) DNA 1: GAAAAATTTTTATATGTGCACATGTTATATATAATT DNA 2: AATTATATATAACATGTGCACATATAAAAATTTTTC	11.2 ln median PBM intensity, better of two orientations
GTGCAC_site9812 (dsDNA) DNA 1: TGTTTTATTTTTTTTGTGCACATACCTTTAGCATCA DNA 2: TGATGCTAAAGGTATGTGCACAAAAAAAATAAAACA	11.4 ln median PBM intensity, better of two orientations
GTGCAC_site9611 (dsDNA) DNA 1: TATGAAACGATATATGTGCACATGAGGGAATATAGA DNA 2: TCTATATTCCCTCATGTGCACATATATCGTTTCATA	11.3 ln median PBM intensity, better of two orientations
GTGCAC_site9596 (dsDNA) DNA 1: TATATTTTTATGTGTGTGCACAAAATAACAAAATAT DNA 2: ATATTTTGTTATTTTGTGCACACACATAAAAATATA	11.4 ln median PBM intensity, better of two orientations
GTGCAC_site9859 (dsDNA) DNA 1: TACATAAATATATGTGTGCACAATTTCGTATATTTA DNA 2: TAAATATACGAAATTGTGCACACATATATTTATGTA	11.1 ln median PBM intensity, better of two orientations
GTGCAC_site10342 (dsDNA) DNA 1: TTTTTAAACCATGTTGTGCACATTTTTTTTGGATTT DNA 2: AAATCCAAAAAAAATGTGCACAACATGGTTTAAAAA	11.3 ln median PBM intensity, better of two orientations
GTGCAC_site9671 (dsDNA) DNA 1: GTTACAGAGAATGTTGTGCACATATCAATAATATAT DNA 2: ATATATTATTGATATGTGCACAACATTCTCTGTAAC	11.4 ln median PBM intensity, better of two orientations
GTGCAC_site9801 (dsDNA) DNA 1: ATCATCTTTATTCAAGTGCACTGAAAATTTTTTATA DNA 2: TATAAAAAATTTTCAGTGCACTTGAATAAAGATGAT	11.2 ln median PBM intensity, better of two orientations
GTGCAC_site9405 (dsDNA) DNA 1: TAAAAATAGGAGTGTGTGCACATAAATTATATACTA DNA 2: TAGTATATAATTTATGTGCACACACTCCTATTTTTA	11.2 ln median PBM intensity, better of two orientations
GTGCAC_site10523 (dsDNA) DNA 1: TCGTTTCATAATATTGTGCACATATATATTTACAAT DNA 2: ATTGTAAATATATATGTGCACAATATTATGAAACGA	11.5 ln median PBM intensity, better of two orientations
GTGCAC_site10194 (dsDNA) DNA 1: AATTTTCCATAGATTGTGCACAAATTTTTATTTTGT DNA 2: ACAAAATAAAAATTTGTGCACAATCTATGGAAAATT	11.3 ln median PBM intensity, better of two orientations
GTGCAC_site10665 (dsDNA) DNA 1: TATGTATATTTTTTTGTGCACATATATATATATATA DNA 2: TATATATATATATATGTGCACAAAAAAATATACATA	11.3 ln median PBM intensity, better of two orientations
GTGCAC_site10009 (dsDNA) DNA 1: AAATATAGAATACATGTGCACATAATATATATATAT DNA 2: ATATATATATATTATGTGCACATGTATTCTATATTT	11.3 ln median PBM intensity, better of two orientations
GTGCAC_site10701 (dsDNA) DNA 1: TAATACATAAATAATGTGCACATGGAAATATATCTT DNA 2: AAGATATATTTCCATGTGCACATTATTTATGTATTA	11.2 ln median PBM intensity, better of two orientations
GTGCAC_site10755 (dsDNA) DNA 1: TAATGCAACATTTATGTGCACATAAATATTTTTTAA DNA 2: TTAAAAAATATTTATGTGCACATAAATGTTGCATTA	11.4 ln median PBM intensity, better of two orientations

Binder	binding signal
GTGCAC_site9931 (dsDNA) DNA 1: ATAAAAATAAAAAGTGTGCACACAAAAATATATATA DNA 2: TATATATATTTTTGTGTGCACACTTTTTATTTTTAT	11.3 ln median PBM intensity, better of two orientations
GTGCAC_site10136 (dsDNA) DNA 1: ATGATCTGTTTGTTTGTGCACATATATATATATTAA DNA 2: TTAATATATATATATGTGCACAAACAAACAGATCAT	11.3 ln median PBM intensity, better of two orientations
GTGCAC_site9621 (dsDNA) DNA 1: TATATATATAAGATTGTGCACATTAAAATGATAGAA DNA 2: TTCTATCATTTTAATGTGCACAATCTTATATATATA	11.1 ln median PBM intensity, better of two orientations
GTGCAC_site10451 (dsDNA) DNA 1: ATGTTATAATTTAGTGTGCACATATTAAGAGGAACA DNA 2: TGTTCCTCTTAATATGTGCACACTAAATTATAACAT	11.4 ln median PBM intensity, better of two orientations
GTGCAC_site9990 (dsDNA) DNA 1: TATATATATGTATATGTGCACAGTTTTCTTATTAAA DNA 2: TTTAATAAGAAAACTGTGCACATATACATATATATA	11.1 ln median PBM intensity, better of two orientations
GTGCAC_site9651 (dsDNA) DNA 1: AATCGATAAAATGTTGTGCACATATTTTTATATTTA DNA 2: TAAATATAAAAATATGTGCACAACATTTTATCGATT	11.2 ln median PBM intensity, better of two orientations
GTGCAC_site10419 (dsDNA) DNA 1: TTTTCTTTTTTTTTTGTGCACATAATATATAATTAT DNA 2: ATAATTATATATTATGTGCACAAAAAAAAAAGAAAA	11.2 ln median PBM intensity, better of two orientations
GTGCAC_site10770 (dsDNA) DNA 1: TATATACATTTTTATGTGCACATTTTATTTTTAAAT DNA 2: ATTTAAAAATAAAATGTGCACATAAAAATGTATATA	11.4 ln median PBM intensity, better of two orientations
GTGCAC_site9822 (dsDNA) DNA 1: ATCGTGTTAAATGTTGTGCACATATAAATTACAAAA DNA 2: TTTTGTAATTTATATGTGCACAACATTTAACACGAT	11.3 ln median PBM intensity, better of two orientations
GTGCAC_site10602 (dsDNA) DNA 1: GTTGTATACAATAATGTGCACATATTAATTTGAACT DNA 2: AGTTCAAATTAATATGTGCACATTATTGTATACAAC	11.2 ln median PBM intensity, better of two orientations
GTGCAC_site9536 (dsDNA) DNA 1: AATAATATACCTCTTGTGCACATATTAAAAGTTCAT DNA 2: ATGAACTTTTAATATGTGCACAAGAGGTATATTATT	11.3 ln median PBM intensity, better of two orientations
GTGCAC_site9761 (dsDNA) DNA 1: ACATAATATACTATTGTGCACATATATATATATATA DNA 2: TATATATATATATATGTGCACAATAGTATATTATGT	11.2 ln median PBM intensity, better of two orientations
GTGCAC_site10133 (dsDNA) DNA 1: AATTTATATAATTTTGTGCACAATATTCATGTATAT DNA 2: ATATACATGAATATTGTGCACAAAATTATATAAATT	11.2 ln median PBM intensity, better of two orientations
GTGCAC_site10407 (dsDNA) DNA 1: CCTTTTTATCTTTTTGTGCACAGACCTTTTTTAAAT DNA 2: ATTTAAAAAAGGTCTGTGCACAAAAAGATAAAAAGG	11.2 ln median PBM intensity, better of two orientations
GTGCAC_site10054 (dsDNA) DNA 1: GTCTATATATTTTAGGTGCAACGTAAATGTAAAAAT DNA 2: ATTTTTACATTTACGTTGCACCTAAAATATATAGAC	11.5 ln median PBM intensity, better of two orientations
GTGCAC_site10327 (dsDNA) DNA 1: AAATTATGCATCGAGGTGCGTCTTAAAATATAGTGG DNA 2: CCACTATATTTTAAGACGCACCTCGATGCATAATTT	11.2 ln median PBM intensity, better of two orientations
